Test results reported in publication PMC11500471 (Protein Science : A Publication of the Protein Society, 2024).
Numbering of substitutions follows the chain as printed. Numbers in names are those of the source. Where “and” joins values, the source holds several entries; their conditions need not be identical. Equal entries are not always repeated. Where two headings read alike, the source gives them in different places.

B1: GRPEL2, human, recombinant, without mitochondrial targeting sequence, His tag cleaved at the TEV site (natural protein)
chain: STATQRTAGEDCRSEDPPDELGPPLAERALRVKAVKLEKEVQDLTVRYQRAIADCENIRRRTQRCVEDAKIFGIQSFCKDLVEVADILEKTTECISEESEPEDQKLTLEKVFRGLLLLEAKLKSVFAKHGLEKLTPIGDKYDPHEHELICHVPAGVGVQPGTVALVRQDGYKLHGRTIRLARVEVAVESQRRL
B2: GRPEL2-C87A, human, recombinant, without mitochondrial targeting sequence, His tag kept (natural protein, UniProt Q8TAA5 33-225, looked up)
chain: B1 chain with C55A
B3: GRPEL2-C97A, human, recombinant, without mitochondrial targeting sequence, His tag kept (natural protein, UniProt Q8TAA5 33-225, looked up)
chain: B1 chain with C65A

Key:
[1] = molecular target: GRPEL2, human, recombinant, without mitochondrial targeting sequence, His tag kept (human) (UniProt Q8TAA5); experiment: SEC-MALS
[2] = molecular target: GRPEL1, human, recombinant, without mitochondrial targeting sequence, His tag kept (human) (UniProt Q9HAV7); experiment: SEC-MALS
[3] = molecular target: mitochondrial HSP70 (mtHSP70), human, recombinant, His-tagged (human) (UniProt P38646); experiment: SEC-MALS
[4] = molecular target: mitochondrial HSP70 (mtHSP70), human, recombinant, His-tagged (human) (UniProt P38646); experiment: MST
[5] = molecular target: mitochondrial HSP70 (mtHSP70), human, recombinant, His-tagged (human) (UniProt P38646); experiment: MST; remark: listed apart in the source
[6] = molecular target: mitochondrial HSP70 (mtHSP70), human, recombinant, His-tagged (human) (UniProt P38646); experiment: MST; remark: listed apart in the source
SEC-MALS = molecular target: the molecule itself; experiment: SEC-MALS

Molecule	Kd [4] [nM]	Kd [6] [nM]	stoichiometry N (SEC-MALS)	other results
GRPEL2, human, recombinant, without mitochondrial targeting sequence, His tag kept (from UniProt Q8TAA5 33-225) (natural protein)				stoichiometry N [1]: 2 and 4
GRPEL1, human, recombinant, without mitochondrial targeting sequence, His tag kept (from UniProt Q9HAV7 28-217) (natural protein)				stoichiometry N [2]: 2 and 4; stoichiometry N (GRPEL1 per mtHSP70 (2:1 complex)) [3]: 2; stoichiometry N (GRPEL1 per mtHSP70 (2:2 complex)) [3]: 1
B1	373	942		Kd [5]: 152 nM
B2	203	204	2 and 4	
B3	457		2 and 4	
